Experimental data from US20050037449.

How the values were obtained:
[1] = target: human BMAL1 expressed in E. coli as an N-terminal GST fusion protein [GST: P08515]
[2] = target: glutathion S-transferase (GST) [GST: P08515]
[3] = target: T1, c-Jun (1-79) expressed in E. coli as an N-terminal GST fusion protein, P05412
T1 chain: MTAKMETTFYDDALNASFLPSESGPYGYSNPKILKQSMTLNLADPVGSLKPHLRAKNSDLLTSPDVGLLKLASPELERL

B1: human JNK1 (Upstate Biotechnology) (protein)
chain: MSRSKRDNNFYSVEIGDSTFTVLKRYQNLKPIGSGAQGIVCAAYDAILERNVAIKKLSRPFQNQTHAKRAYRELVLMKCVNHKNIIGLLNVFTPQKSLEEFQDVYIVMELMDANLCQVIQMELDHERMSYLLYQMLCGIKHLHSAGIIHRDLKPSNIVVKSDCTLKILDFGLARTAGTSFMMTPYVVTRYYRAPEVILGMGYKENVDLWSVGCIMGEMVCHKILFPGRDYIDQWNKVIEQLGTPCPEFMKKLQPTVRTYVENRPKYAGYSFEKLFPDVLFPADSEHNKLKASQARDLLSKMLVIDASKRISVDEALQHPYINVWYDPSEAEAPPPKIPDKQLDEREHTIEEWKELIYKEVMDLEERTKNGVIRGQPSPLAQVQQ
in vitro phosphorylation, JNK1 added instead of JNK3 [1]: substantially not phosphorylated by any of JNK1 and JNK2 (which are members of the JNK family), and ERK2

B2: human JNK2 (Upstate Biotechnology) (protein)
chain: MSDSKCDSQFYSVQVADSTFTVLKRYQQLKPIGSGAQGIVCAAFDTVLGINVAVKKLSRPFQNQTHAKRAYRELVLLKCVNHKNIISLLNVFTPQKTLEEFQDVYLVMELMDANLCQVIHMELDHERMSYLLYQMLCGIKHLHSAGIIHRDLKPSNIVVKSDCTLKILDFGLARTACTNFMMTPYVVTRYYRAPEVILGMGYKENVDIWSVGCIMGELVKGCVIFQGTDHIDQWNKVIEQLGTPSAEFMKKLQPTVRNYVENRPKYPGIKFEELFPDWIFPSESERDKIKTSQARDLLSKMLVIDPDKRISVDEALRHPYITVWYDPAEAEAPPPQIYDAQLEEREHAIEEWKELIYKEVMDWEERSKNGVVKDQPSDAAVSSNATPSQSSSINDISSMSTEQTLASDTDSSLDASTGPLEGCR
in vitro phosphorylation, JNK2 added instead of JNK3 [1]: substantially not phosphorylated by any of JNK1 and JNK2 (which are members of the JNK family), and ERK2

B3: mouse ERK2 (New England Biolabs) (protein)
chain: MAAAAAAGPEMVRGQVFDVGPRYTNLSYIGEGAYGMVCSAYDNLNKVRVAIKKISPFEHQTYCQRTLREIKILLRFRHENIIGINDIIRAPTIEQMKDVYIVQDLMETDLYKLLKTQHLSNDHICYFLYQILRGLKYIHSANVLHRDLKPSNLLLNTTCDLKICDFGLARVADPDHDHTGFLTEYVATRWYRAPEIMLNSKGYTKSIDIWSVGCILAEMLSNRPIFPGKHYLDQLNHILGILGSPSQEDLNCIINLKARNYLLSLPHKNKVPWNRLFPNADSKALDLLDKMLTFNPHKRIEVEQALAHPYLEQYYDPSDEPIAEAPFKFDMELDDLPKEKLKELIFEETARFQPGYRS
in vitro phosphorylation, ERK2 added instead of JNK3 [1]: substantially not phosphorylated by any of JNK1 and JNK2 (which are members of the JNK family), and ERK2

B4: active form of human JNK3 (JNK3 α1) expressed as an N-terminal His-tagged protein (protein)
chain: MSLHFLYYCSEPTLDVKIAFCQGFDKQVDVSYIAKHYNMSKSKVDNQFYSVEVGDSTFTVLKRYQNLKPIGSGAQGIVCAAYDAVLDRNVAIKKLSRPFQNQTHAKRAYRELVLMKCVNHKNIISLLNVFTPQKTLEEFQDVYLVMELMDANLCQVIQMELDHERMSYLLYQMLCGIKHLHSAGIIHRDLKPSNIVVKSDCTLKILDFGLARTAGTSFMMTPYVVTRYYRAPEVILGMGYKENVDIWSVGCIMGEMVRHKILFPGRDYIDQWNKVIEQLGTPCPEFMKKLQPTVRNYVENRPKYAGLTFPKLFPDSLFPADSEHNKLKASQARDLLSKMLVIDPAKRISVDDALQHPYINVWYDPAEVEAPPPQIYDKQLDEREHTIEEWKELIYKEVMNSEEKTKNGVVKGQPSPSAQVQQ
in vitro phosphorylation ([γ-32P]ATP kinase assay, SDS-PAGE, autoradiography) [1]: The phosphorylation of GST-BMAL1 was observed in this experimental system | in vitro phosphorylation with 0 ng, 14 ng, 28 ng and 70 ng of active JNK3 [1]: GST-BMAL1 was phosphorylated in a JNK3 dose-dependent manner | in vitro phosphorylation ([γ-32P]ATP kinase assay, SDS-PAGE, autoradiography) [2]: did not phosphorylate the GST | in vitro phosphorylation ([γ-32P]ATP kinase assay, SDS-PAGE, autoradiography) [3]: JNK3 did phosphorylate the GST-c-Jun (1-79) used as a positive control
